Assay [1] deals with T1, N-acetyl-L-glutamate kinase from Synechocystis sp. PCC 6803 with an N-terminal His6 tag (Synechocystis sp. PCC 6803) (UniProt P73326).
T1 sequence: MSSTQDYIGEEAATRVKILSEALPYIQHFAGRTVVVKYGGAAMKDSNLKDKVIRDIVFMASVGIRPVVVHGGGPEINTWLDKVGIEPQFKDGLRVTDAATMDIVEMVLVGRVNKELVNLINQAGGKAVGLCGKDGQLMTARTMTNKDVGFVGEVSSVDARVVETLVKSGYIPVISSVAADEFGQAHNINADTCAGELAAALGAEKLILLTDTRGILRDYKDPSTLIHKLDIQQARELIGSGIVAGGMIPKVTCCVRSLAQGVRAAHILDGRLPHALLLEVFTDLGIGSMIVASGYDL

Assay [2] concerns the target T1, N-acetyl-L-glutamate kinase from Synechocystis sp. PCC 6803 with an N-terminal His6 tag (Synechocystis sp. PCC 6803). This is another data set of the same source.

We go through one substance from article PMC5768801, “The PII signaling protein from red algae represents an evolutionary link between cyanobacterial and Chloroplastida PII proteins” (Scientific Reports, 2018).

Sequence of PII protein from the red alga Porphyra purpurea with a C-terminal Strep-tag II (P51254 whole entry): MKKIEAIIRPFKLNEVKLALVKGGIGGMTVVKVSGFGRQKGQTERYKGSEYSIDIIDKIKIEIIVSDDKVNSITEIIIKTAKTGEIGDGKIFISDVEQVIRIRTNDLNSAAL

For “PII protein from the red alga Porphyra purpurea with a C-terminal Strep-tag II (from UniProt P51254 1-112) (natural protein)”, the catalytic efficiency (Kcat/Km) of ScNAGK in the coupled NAGK activity assay, PpPII-complexed (free ScNAGK: 0.55 × 10^3 s^−1M^−1); NAG varied at 10 mM ATP in assay [1] came to 2360 s^−1M^−1. The relief of ScNAGK from feedback inhibition by arginine: rise of the IC50 for arginine on addition of PpPII (free ScNAGK: IC50 6.2 µM), coupled NAGK assay, without glutamine in assay [2] came out at 4 fold.
